Results taken from PMC7699638.

Target: MBP-ROCK2 (full-length ROCK2 with N-terminal MBP tag) (human), O75116
Assay: SAXS; MBP-ROCK2 alone; 25 mM HEPES pH 7.4, 25 °C, concentration series 0.3–1.1 mg/ml; molecular mass from the scattering extrapolated to zero angle
Conditions: remark: other sources report otherwise

stoichiometry N: 2
B1: MBP-ROCK2 (full-length ROCK2 with N-terminal MBP tag), O75116 1-1388 (enzyme)
chain: MSRPPPTGKMPGAPETAPGDGAGASRQRKLEALIRDPRSPINVESLLDGLNSLVLDLDFPALRKNKNIDNFLNRYEKIVKKIRGLQMKAEDYDVVKVIGRGAFGEVQLVRHKASQKVYAMKLLSKFEMIKRSDSAFFWEERDIMAFANSPWVVQLFYAFQDDRYLYMVMEYMPGGDLVNLMSNYDVPEKWAKFYTAEVVLALDAIHSMGLIHRDVKPDNMLLDKHGHLKLADFGTCMKMDETGMVHCDTAVGTPDYISPEVLKSQGGDGFYGRECDWWSVGVFLYEMLVGDTPFYADSLVGTYSKIMDHKNSLCFPEDAEISKHAKNLICAFLTDREVRLGRNGVEEIRQHPFFKNDQWHWDNIRETAAPVVPELSSDIDSSNFDDIEDDKGDVETFPIPKAFVGNQLPFIGFTYYRENLLLSDSPSCRETDSIQSRKNEESQEIQKKLYTLEEHLSNEMQAKEELEQKCKSVNTRLEKTAKELEEEITLRKSVESALRQLEREKALLQHKNAEYQRKADHEADKKRNLENDVNSLKDQLEDLKKRNQNSQISTEKVNQLQRQLDETNALLRTESDTAARLRKTQAESSKQIQQLESNNRDLQDKNCLLETAKLKLEKEFINLQSALESERRDRTHGSEIINDLQGRICGLEEDLKNGKILLAKVELEKRQLQERFTDLEKEKSNMEIDMTYQLKVIQQSLEQEEAEHKATKARLADKNKIYESIEEAKSEAMKEMEKKLLEERTLKQKVENLLLEAEKRCSLLDCDLKQSQQKINELLKQKDVLNEDVRNLTLKIEQETQKRCLTQNDLKMQTQQVNTLKMSEKQLKQENNHLMEMKMNLEKQNAELRKERQDADGQMKELQDQLEAEQYFSTLYKTQVRELKEECEEKTKLGKELQQKKQELQDERDSLAAQLEITLTKADSEQLARSIAEEQYSDLEKEKIMKELEIKEMMARHKQELTEKDATIASLEETNRTLTSDVANLANEKEELNNKLKDVQEQLSRLKDEEISAAAIKAQFEKQLLTERTLKTQAVNKLAEIMNRKEPVKRGNDTDVRRKEKENRKLHMELKSEREKLTQQMIKYQKELNEMQAQIAEESQIRIELQMTLDSKDSDIEQLRSQLQALHIGLDSSSIGSGPGDAEADDGFPESRLEGWLSLPVRNNTKKFGWVKKYVIVSSKKILFYDSEQDKEQSNPYMVLDIDKLFHVRPVTQTDVYRADAKEIPRIFQILYANEGESKKEQEFPVEPVGEKSNYICHKGHEFIPTLYHFPTNCEACMKPLWHMFKPPPALECRRCHIKCHKDHMDKKEEIIAPCKVYYDISTAKNLLLLANSTEEQQKWVSRLVKKIPKKPPAPDPFARSSPRTSMKIQQNQSIRRPSRQLAPNKPS
